Test results from paper PMC10537722, “Proline Dehydrogenase and Pyrroline 5 Carboxylate Dehydrogenase from Mycobacterium tuberculosis: Evidence for Substrate Channeling” (Pathogens, 2023).

Columns and labels:
[1] = target: T1, ∆^1-pyrroline-5-carboxylate (P5C) dehydrogenase (PruA) (Mycobacterium tuberculosis, UniProt O50443); experiment: biochemical
T1 construct: gene rocA

[2] = test system: NC(=O)c1ccc[n+]([C@@H]2O[C@H](COP(=O)([O-])OP(=O)(O)OC[C@H]3O[C@@H](n4cnc5c(N)ncnc54)[C@H](O)[C@@H]3O)[C@@H](O)[C@H]2O)c1; experiment: purified protein; conditions: pH 7.0; 25.0 °C; varied: cofactor
O=C(O)C1CCC=N1 = experiment: purified protein; conditions: NAD^+; pH 7.0; 25.0 °C

T1 sequence (O50443 1-543): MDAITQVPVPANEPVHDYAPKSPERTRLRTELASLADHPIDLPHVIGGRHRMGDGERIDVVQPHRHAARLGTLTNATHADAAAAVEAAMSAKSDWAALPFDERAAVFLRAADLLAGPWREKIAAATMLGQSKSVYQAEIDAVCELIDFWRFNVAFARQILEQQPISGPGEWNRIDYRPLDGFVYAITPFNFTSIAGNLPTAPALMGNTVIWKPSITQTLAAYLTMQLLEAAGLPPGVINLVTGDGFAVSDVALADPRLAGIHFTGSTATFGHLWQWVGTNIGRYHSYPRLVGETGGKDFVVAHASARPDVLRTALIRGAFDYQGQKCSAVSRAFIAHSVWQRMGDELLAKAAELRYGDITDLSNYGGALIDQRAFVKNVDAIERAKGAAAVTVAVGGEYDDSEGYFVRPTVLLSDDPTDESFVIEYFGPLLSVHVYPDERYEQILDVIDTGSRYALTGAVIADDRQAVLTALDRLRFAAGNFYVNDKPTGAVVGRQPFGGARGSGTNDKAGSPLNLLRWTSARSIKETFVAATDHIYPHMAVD

Row | Compound | Ki [1] [mM] | Km [2] [µM] | Km (O=C(O)C1CCC=N1) [µM] | kcat (O=C(O)C1CCC=N1) [s⁻¹] | kcat/Km (O=C(O)C1CCC=N1) [M⁻¹ s⁻¹]
1 | O=C(O)[C@@H]1CCCN1 [L-proline] | 6.7 | – | – | – | –
2 | ∆^1-pyrroline-5-carboxylate (P5C) dehydrogenase (PruA) (Mycobacterium tuberculosis H37Rv) | – | 33 ± 4.3 | 120 ± 0.02 | 1.1 | 8500
